For orientation: kcat means the maximal rate divided by the concentration of active sites.

In this data set the test system is CC(C)(O/N=C(\C(=O)N[C@@H]1C(=O)N2C(C(=O)[O-])=C(C[N+]3(CCNC(=O)c4ccc(O)c(O)c4Cl)CCCC3)CS[C@H]12)c1csc(N)n1)C(=O)O. Kind of data set: purified protein, by the assay type. As to conditions: other: FDC hydrolysis by VIM-2, 30 °C, pH 7.5.

On to VIM-2 (Escherichia coli), for which the kcat is 1.1 ± 0.14 s⁻¹.
